Results published in patent publication US8728749B2, “Detection of LCAT activity” (priority 2010, dated 2014).

Biological target: T1, rhLCAT (Homo sapiens, UniProt P04180)
T1 construct: made in house; host or cells: HEK293f cells, stably transfected with pcDNA3.1/Hygro carrying the LCAT insert from Origene pCMV6-XL4/LCAT
T1 sequence (P04180 25-440): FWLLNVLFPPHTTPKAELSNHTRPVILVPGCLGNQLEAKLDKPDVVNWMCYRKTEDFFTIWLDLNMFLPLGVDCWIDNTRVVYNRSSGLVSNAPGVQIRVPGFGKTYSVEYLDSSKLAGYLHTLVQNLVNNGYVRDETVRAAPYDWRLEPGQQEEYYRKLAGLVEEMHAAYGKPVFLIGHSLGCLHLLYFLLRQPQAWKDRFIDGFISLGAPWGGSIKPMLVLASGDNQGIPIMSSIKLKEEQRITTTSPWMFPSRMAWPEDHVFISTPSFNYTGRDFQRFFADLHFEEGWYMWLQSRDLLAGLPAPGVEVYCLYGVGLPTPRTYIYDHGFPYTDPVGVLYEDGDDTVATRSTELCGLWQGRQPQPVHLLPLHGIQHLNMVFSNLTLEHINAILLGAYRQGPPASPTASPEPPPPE
Test: LCAT activating potential of LCAT-activating peptides in mHDL substrate (DHE fluorescence / cholesterol oxidase assay)
Assay type: biochemical
Settings: specific activity of rhLCAT with peptide/POPC/DHE substrate, 50 μM DHE, relative to SEQ ID NO: 1
Procedure: Recombinant human LCAT (rhLCAT), isolated from cells expressing human LCAT (Example 5), was diluted into phosphate buffer containing 5 mM β-mercaptoethanol and 60 μM bovine serum albumin to obtain rhLCAT concentrations that would deliver the indicated mass of rhLCAT to assay samples in a 5 μL volume. Substrate, prepared as in Example 1, was diluted to 62.5 μM DHE with phosphate buffer containing 5 mM β-mercaptoethanol and 60 μM bovine serum albumin. One hundred microliter volumes of the diluted substrate were added to individual wells of a black, polystyrene 96-well plate (Whatman 7701-2350) which had previously been loaded with 5 μL of rhLCAT. Blank and control wells were not loaded with rhLCAT. The plate was covered and incubated at 37° C. for one hour. The reaction was quenched by the addition of 25 μL phosphate buffer containing 2% Triton X-100 and 5 units/ml COx (Streptomyces sp.) to all wells except control wells, which received 2% Triton X-100 without COx. The plate was returned to the incubator for one hour, then equilibrated to 37° C. in the plate reader and scanned for DHE fluorescence. Percent fluorescence was calculated from the ratio of the average fluorescence of duplicate wells treated with COx to the average fluorescence of the control wells. The amount of fluorescence remaining after oxidation is directly proportional to the amount of DHE esterified by LCAT. The line represents the fit of the data by linear regression. (FIG. 4).
(§1) Two microliter aliquots of plasma were added to separate assay wells followed by 100 microliters of substrate (Example 2). The assay plate was incubated for 2 hours at 37° C. followed by quenching with COx (Example 2). The nmoles DHE ester formed in each sample was calculated by subtracting the average fluorescence of the blank wells from the fluorescence of each sample well to obtain net fluorescence. The average net fluorescence of sample wells at each rhLCAT level was then divided by the average net fluorescence of control wells and multiplied by the DHE per well, which was 6.25 nmoles, to yield the nmoles of DHE ester formed. The line represents the fit of the data by linear regression. The activity detected at 0 μg/ml rhLCAT (Y-intercept) is the activity of endogenous mouse LCAT in the plasma (FIG. 5).
LCAT-activating peptides, which are produced by solid-phase synthesis (GenScript USA, Inc), are dissolved in methanol at 5 mM concentration. Three hundred and ninety seven microliters of 5 mM LAP and 357 microliters of a chloroform solution containing 25 mM POPC and 2.8 mM DHE are added to a glass vial. The solvents are evaporated by directing a gentle stream of inert gas (e.g. nitrogen) into the vial. Residual solvent is removed by high vacuum for 2 hours. The dried mixture is dispersed in 2 milliliters of phosphate buffer (150 mM NaCl, 50 mM sodium phosphate, 1 mM EDTA, pH 7.4) to obtain a final DHE concentration of 0.5 mM. The vial is flushed with inert gas and capped after buffer addition. The dispersion is obtained by vortexing and brief (10 to 30 seconds) sonication in a water bath sonicator. The substrate is protected from light and stored with inert gas in the capped vial at 2-8° C.
The LCAT activating potential of LAP is determined with the protocol described in Example 2 at a DHE concentration of 50 μM and with the rhLCAT concentrations indicated. A linear regression fit of nmoles DHE ester formed, calculated as in Example 3, versus rhLCAT in the sample yields the specific activity (nmol DHE ester/μg LCAT/hour) of rhLCAT with substrate. This protocol was used to compare and characterize the LCAT activating potential of amphipathic peptides with mean hydrophobicities and mean hydrophobic moments that were sufficient to enable the peptides to form stable micelle complexes with phosphatidylcholine and DHE (Table 3).

| Substance | RELATIVE ACTIVITY (Percent activity relative to SEQ ID: 1) |
| --- | --- |
| 6 (PVLDLFRELLEELLQKLKK) [compound 6] | 65% |
| 11 (DWLKAFYDKVFEKFKEFF) [compound 11] | 28% |
| 5 (PTLDLFRELLNELLQKLKK) [compound 5] | 65% |
| 3 (PSLDLFRELLNELLEALKQKLK) [compound 3] | 87% |
| 9 (EWLKAFLEKVLEKLKELF) [compound 9] | 55% |
| 12 (EVLKNLLEKLLEKLKELF) [compound 12] | 21% |
| 2 (PTLDLFRELLNELLEALKQKLK) [compound 2] | 94% |
| 4 (PVLDLFRELLNELLQKLKK) [compound 4] | 86% |
| 14 (DVFQALKELFAQLLEKWKQV) [compound 14] | 0% |
| 7 (PVLDLFKELLEELFQKLKK) [compound 7] | 56% |
| 8 (PVLDKFLELLEELFQKLKK) [compound 8] | 15% |
| 10 (EWLKAFYEKVLEKLKELF) [compound 10] | 43% |
| 13 (DLWQRLLELFNELLEKLKQALK) [compound 13] | 0% |

Tested on: not listed separately
Test: Time course of LCAT activity in plasma from mice injected intravenously with rhLCAT
Assay type: in vivo, transgenic mice expressing human apoA-I
Settings: intravenous, 10 mg/kg (30×), plasma collected at 1 hour post-dose
Procedure: as §1
The utility of the current invention to measure LCAT activity changes in vivo as a result of rhLCAT injection is shown in FIG. 6. Transgenic mice expressing human apoA-I (Jackson Laboratories) and maintained on chow diet were injected (intravenous) with rhLCAT in normal saline at doses of 1 mg/kg (3×), 3 mg/kg (10×) or 10 mg/kg (30×). Control animals were injected with saline alone. Plasma was prepared from blood samples collected at 0.1, 1, 5 and 24 hours following LCAT injection. […]

| Substance | increase in LCAT activity in plasma |
| --- | --- |
| rhLCAT: recombinant human LCAT isolated from culture medium of HEK293f cells expressing human LCAT | 11 fold |
